Test results published in article PMC13061415.

B1: Twa1 CTLH-CRA domain (58-190), wild type [mouse] / muskelin CTLH-CRA domain (205–735 Δ248–625) [rat] (parent)
chain 1: EHPMLTDMHDKLVLKGDFDACEELIEKAVNDGLFNQYISQQEYPSKDYLLRHCKYLIRKHRFEEKAQMDPLSALKYLQNDLYITVDHSDPEETKEFQLLASALFKSGSDFTALGFSDVDHTYAQRTQLFDTLVNFFPDSMTPPKGNLVDLITL
chain 2: SVDLETLDERIKIREMILKGQIQEAIALINSLHPELLDTNRYLYFHLQQQHLIELIRQRETEAALEFAQTQLAEQGEESRECLTEMERTLALLAFDSPEESPFGDLLHMMQRQKVWSEVNQAVLDYENRESTP

Variants of: B1
Test: ITC
Conditions: with muskelin CTLH-CRA domain (205–735 Δ248–625) [rat]; 160 µM muskelin + 16 µM Twa1 mutants

Row | Kd | screen value | Variant
1 | 340 nM | 0.88 | chain 2 A68G Q69R A73Q L83K E87K L90F F95Y F103V

Same assay, conditions: with muskelin CTLH-CRA domain (205–735 Δ248–625) [rat]; 160 µM muskelin + 16 µM Twa1 mutants; read off a plot

Row | screen value | Variant
2 | -9.2 kcal/mol | chain 2 A68G Q69R A73Q L83K E87K L90F F95Y F103V
